Patent publication US10919943B2, “Mutant proteins enabling agrochemical control of plant gene expression” (The Regents of the University of California, priority 2016, dated 2021)

T1: PYR1 (Arabidopsis thaliana, UniProt O49686)
T1 construct: expressed in transfected cells; host or cells: S. cerevisiae strain Y190
T1 sequence (O49686 1-191): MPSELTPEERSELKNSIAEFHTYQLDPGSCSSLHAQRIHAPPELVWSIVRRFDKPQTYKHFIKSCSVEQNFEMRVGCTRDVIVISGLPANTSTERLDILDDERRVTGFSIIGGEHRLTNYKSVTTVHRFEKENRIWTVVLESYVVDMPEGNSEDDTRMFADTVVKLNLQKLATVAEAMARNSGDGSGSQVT


Key:
HAB1 = assay: Yeast two hybrid of pBD-PYR1 site saturation mutants with pACT-HAB1 on 10 μM ABA, β-galactosidase staining; type: cell-based, Arabidopsis; design: key: x: Mutations in PYR1 that disrupt ABA-induced binding to PYR1 to HAB1; conditions: S. cerevisiae Y190, 10 μM ABA; dead = lack of visible staining in comparison to wild type control
Method in brief: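 Binding was read by β-galactosidase staining of chloroform-lysed colonies after 2 days at 30° C on SD (-Leu, -Trp) plates containing 10 μM (+)-ABA. Yeast strain Y190 carried the BD-PYR1 single-substitution mutants plus the AD-HAB1 fusion. Absence of staining versus the wild-type control defined "dead" mutants.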

PYR1 = target: T1, PYR1; assay: Yeast two hybrid of pACT-HAB1 site saturation mutants with pBD-PYR1 on 10 μM ABA, β-galactosidase staining; type: cell-based; design: key: x: Mutations in HAB1 that disrupt HAB1 interaction with PYR1; conditions: S. cerevisiae Y190, 10 μM ABA; dead = lack of detectable staining in comparison to wild type control
Source text: To systematically define mutations in HAB1 that disrupt its binding to PYR1, we used site saturation mutagenesis to create a collection all possible single amino acid substitutions in 20 residues lining the PYR1 binding interface, and then assayed the ability of each mutant to bind PYR1 using the yeast two hybrid assay described above. We targeted the following residues for mutagenesis: R199, 5200, E201, E203, H245, G246, G247, S322, E323, T324, K381, I383, Q384, W385, Q386, R389, F391, G392, V393, and Y404. To create the collection of mutations, mutagenic “NNK” site directed mutagenesis primers were synthesized for each of the 20 positions and the primers used in QuickChange site-directed mutagenesis reactions using a previously described pACT-HAB1 template (Park et al., 2009). We note that this clone uses a HAB1 cDNA lacking its three N-terminal amino acids. The reaction products were digested with DpnI, and transformed into competent Escherichia coli DH5α cells and plasmid DNA for 96 colonies per site was isolated using Bioneer AccuPrep® Plasmid Mini Extraction Kit (Alameda, Calif.) and sequenced to identify mutants. This process identified most of the 19 desired mutations per target site; the remaining mutations were constructed directly using specific mutagenic primers. To interrogate the effects of the mutations on PYR1-HAB1 interactions, the mutant clones were individually transformed into S. cerevisiae strain Y190 containing pBD-PYR1 (Park et al., 2009). Yeast transformants were selected for the presence of plasmids on selective SD (-Leu,-Trp) plates and then spotted onto SD (-Leu,-Trp) agar plates supplemented with 10 μM ABA. After incubating the test plates at 30° C. for two days, the colonies were lysed with chloroform and stained to reveal […] expression levels. “Dead” mutants were defined by lack of detectable staining in comparison to a wild type pBD-PYR1/pACT-HAB1 control. This screening effort defined 163 mutations that disrupt the ABA-induced PYR1/HAB1 interaction (Table 2).

Row | Molecule | Mutations in PYR1 that disrupt ABA-induced binding to PYR1 to HAB1 (HAB1) | Mutations in HAB1 that disrupt HAB1 interaction with PYR1 (PYR1)
1 | S85G: PYR1 mutant (protein, UniProt O49686 1-191, looked up, variant S85G) Abscisic acid receptor PYR1: MPSELTPEERSELKNSIAEFHTYQLDPGSCSSLHAQRIHAPPELVWSIVRRFDKPQTYKHFIKSCSVEQNFEMRVGCTRDVIVIGGLPANTSTERLDILDDERRVTGFSIIGGEHRLTNYKSVTTVHRFEKENRIWTVVLESYVVDMPEGNSEDDTRMFADTVVKLNLQKLATVAEAMARNSGDGSGSQVT | x | 
2 | S85H: PYR1 mutant (protein, UniProt O49686 1-191, looked up, variant S85H) Abscisic acid receptor PYR1: MPSELTPEERSELKNSIAEFHTYQLDPGSCSSLHAQRIHAPPELVWSIVRRFDKPQTYKHFIKSCSVEQNFEMRVGCTRDVIVIHGLPANTSTERLDILDDERRVTGFSIIGGEHRLTNYKSVTTVHRFEKENRIWTVVLESYVVDMPEGNSEDDTRMFADTVVKLNLQKLATVAEAMARNSGDGSGSQVT | x | 
3 | S85I: PYR1 mutant (protein, UniProt O49686 1-191, looked up, variant S85I) Abscisic acid receptor PYR1: MPSELTPEERSELKNSIAEFHTYQLDPGSCSSLHAQRIHAPPELVWSIVRRFDKPQTYKHFIKSCSVEQNFEMRVGCTRDVIVIIGLPANTSTERLDILDDERRVTGFSIIGGEHRLTNYKSVTTVHRFEKENRIWTVVLESYVVDMPEGNSEDDTRMFADTVVKLNLQKLATVAEAMARNSGDGSGSQVT | x | 
4 | S85K: PYR1 mutant (protein, UniProt O49686 1-191, looked up, variant S85K) Abscisic acid receptor PYR1: MPSELTPEERSELKNSIAEFHTYQLDPGSCSSLHAQRIHAPPELVWSIVRRFDKPQTYKHFIKSCSVEQNFEMRVGCTRDVIVIKGLPANTSTERLDILDDERRVTGFSIIGGEHRLTNYKSVTTVHRFEKENRIWTVVLESYVVDMPEGNSEDDTRMFADTVVKLNLQKLATVAEAMARNSGDGSGSQVT | x | 
5 | E323L: HAB1 mutant (protein, UniProt Q9CAJ0 23-511, looked up, variant E323L) Protein phosphatase 2C 16: SPVEITQLKNVTDAADLLSDSENQSFCNGGTECTMEDVSELEEVGEQDLLKTLSDTRSGSSNVFDEDDVLSVVEDNSAVISEGLLVVDAGSELSLSNTAMEIDNGRVLATAIIVGESSIEQVPTAEVLIAGVNQDTNTSEVVIRLPDENSNHLVKGRSVYELDCIPLWGTVSIQGNRSEMEDAFAVSPHFLKLPIKMLMGDHEGMSPSLTHLTGHFFGVYDGHGGHKVADYCRDRLHFALAEEIERIKDELCKRNTGEGRQVQWDKVFTSCFLTVDGEIEGKIGRAVVGSSDKVLEAVASLTVGSTAVVALVCSSHIVVSNCGDSRAVLFRGKEAMPLSVDHKPDREDEYARIENAGGKVIQWQGARVFGVLAMSRSIGDRYLKPYVIPEPEVTFMPRSREDECLILASDGLWDVMNNQEVCEIARRRILMWHKKNGAPPLAERGKGIDPACQAAADYLSMLALQKGSKDNISIIVIDLKAQRKFKTRT |  | x
6 | K381W: HAB1 mutant (protein, UniProt Q9CAJ0 23-511, looked up, variant K381W) Protein phosphatase 2C 16: SPVEITQLKNVTDAADLLSDSENQSFCNGGTECTMEDVSELEEVGEQDLLKTLSDTRSGSSNVFDEDDVLSVVEDNSAVISEGLLVVDAGSELSLSNTAMEIDNGRVLATAIIVGESSIEQVPTAEVLIAGVNQDTNTSEVVIRLPDENSNHLVKGRSVYELDCIPLWGTVSIQGNRSEMEDAFAVSPHFLKLPIKMLMGDHEGMSPSLTHLTGHFFGVYDGHGGHKVADYCRDRLHFALAEEIERIKDELCKRNTGEGRQVQWDKVFTSCFLTVDGEIEGKIGRAVVGSSDKVLEAVASETVGSTAVVALVCSSHIVVSNCGDSRAVLFRGKEAMPLSVDHKPDREDEYARIENAGGWVIQWQGARVFGVLAMSRSIGDRYLKPYVIPEPEVTFMPRSREDECLILASDGLWDVMNNQEVCEIARRRILMWHKKNGAPPLAERGKGIDPACQAAADYLSMLALQKGSKDNISIIVIDLKAQRKFKTRT |  | x
7 | I383N: HAB1 mutant (protein, UniProt Q9CAJ0 23-511, looked up, variant I383N) Protein phosphatase 2C 16: SPVEITQLKNVTDAADLLSDSENQSFCNGGTECTMEDVSELEEVGEQDLLKTLSDTRSGSSNVFDEDDVLSVVEDNSAVISEGLLVVDAGSELSLSNTAMEIDNGRVLATAIIVGESSIEQVPTAEVLIAGVNQDTNTSEVVIRLPDENSNHLVKGRSVYELDCIPLWGTVSIQGNRSEMEDAFAVSPHFLKLPIKMLMGDHEGMSPSLTHLTGHFFGVYDGHGGHKVADYCRDRLHFALAEEIERIKDELCKRNTGEGRQVQWDKVFTSCFLTVDGEIEGKIGRAVVGSSDKVLEAVASETVGSTAVVALVCSSHIVVSNCGDSRAVLFRGKEAMPLSVDHKPDREDEYARIENAGGKVNQWQGARVFGVLAMSRSIGDRYLKPYVIPEPEVTFMPRSREDECLILASDGLWDVMNNQEVCEIARRRILMWHKKNGAPPLAERGKGIDPACQAAADYLSMLALQKGSKDNISIIVIDLKAQRKFKTRT |  | x
8 | I383P: HAB1 mutant (protein, UniProt Q9CAJ0 23-511, looked up, variant I383P) Protein phosphatase 2C 16: SPVEITQLKNVTDAADLLSDSENQSFCNGGTECTMEDVSELEEVGEQDLLKTLSDTRSGSSNVFDEDDVLSVVEDNSAVISEGLLVVDAGSELSLSNTAMEIDNGRVLATAIIVGESSIEQVPTAEVLIAGVNQDTNTSEVVIRLPDENSNHLVKGRSVYELDCIPLWGTVSIQGNRSEMEDAFAVSPHFLKLPIKMLMGDHEGMSPSLTHLTGHFFGVYDGHGGHKVADYCRDRLHFALAEEIERIKDELCKRNTGEGRQVQWDKVFTSCFLTVDGEIEGKIGRAVVGSSDKVLEAVASETVGSTAVVALVCSSHIVVSNCGDSRAVLFRGKEAMPLSVDHKPDREDEYARIENAGGKVPQWQGARVFGVLAMSRSIGDRYLKPYVIPEPEVTFMPRSREDECLILASDGLWDVMNNQEVCEIARRRILMWHKKNGAPPLAERGKGIDPACQAAADYLSMLALQKGSKDNISIIVIDLKAQRKFKTRT |  | x
9 | I383Q: HAB1 mutant (protein, UniProt Q9CAJ0 23-511, looked up, variant I383Q) Protein phosphatase 2C 16: SPVEITQLKNVTDAADLLSDSENQSFCNGGTECTMEDVSELEEVGEQDLLKTLSDTRSGSSNVFDEDDVLSVVEDNSAVISEGLLVVDAGSELSLSNTAMEIDNGRVLATAIIVGESSIEQVPTAEVLIAGVNQDTNTSEVVIRLPDENSNHLVKGRSVYELDCIPLWGTVSIQGNRSEMEDAFAVSPHFLKLPIKMLMGDHEGMSPSLTHLTGHFFGVYDGHGGHKVADYCRDRLHFALAEEIERIKDELCKRNTGEGRQVQWDKVFTSCFLTVDGEIEGKIGRAVVGSSDKVLEAVASETVGSTAVVALVCSSHIVVSNCGDSRAVLFRGKEAMPLSVDHKPDREDEYARIENAGGKVQQWQGARVFGVLAMSRSIGDRYLKPYVIPEPEVTFMPRSREDECLILASDGLWDVMNNQEVCEIARRRILMWHKKNGAPPLAERGKGIDPACQAAADYLSMLALQKGSKDNISIIVIDLKAQRKFKTRT |  | x
10 | I383R: HAB1 mutant (protein, UniProt Q9CAJ0 23-511, looked up, variant I383R) Protein phosphatase 2C 16: SPVEITQLKNVTDAADLLSDSENQSFCNGGTECTMEDVSELEEVGEQDLLKTLSDTRSGSSNVFDEDDVLSVVEDNSAVISEGLLVVDAGSELSLSNTAMEIDNGRVLATAIIVGESSIEQVPTAEVLIAGVNQDTNTSEVVIRLPDENSNHLVKGRSVYELDCIPLWGTVSIQGNRSEMEDAFAVSPHFLKLPIKMLMGDHEGMSPSLTHLTGHFFGVYDGHGGHKVADYCRDRLHFALAEEIERIKDELCKRNTGEGRQVQWDKVFTSCFLTVDGEIEGKIGRAVVGSSDKVLEAVASETVGSTAVVALVCSSHIVVSNCGDSRAVLFRGKEAMPLSVDHKPDREDEYARIENAGGKVRQWQGARVFGVLAMSRSIGDRYLKPYVIPEPEVTFMPRSREDECLILASDGLWDVMNNQEVCEIARRRILMWHKKNGAPPLAERGKGIDPACQAAADYLSMLALQKGSKDNISIIVIDLKAQRKFKTRT |  | x
11 | I383S: HAB1 mutant (protein, UniProt Q9CAJ0 23-511, looked up, variant I383S) Protein phosphatase 2C 16: SPVEITQLKNVTDAADLLSDSENQSFCNGGTECTMEDVSELEEVGEQDLLKTLSDTRSGSSNVFDEDDVLSVVEDNSAVISEGLLVVDAGSELSLSNTAMEIDNGRVLATAIIVGESSIEQVPTAEVLIAGVNQDTNTSEVVIRLPDENSNHLVKGRSVYELDCIPLWGTVSIQGNRSEMEDAFAVSPHFLKLPIKMLMGDHEGMSPSLTHLTGHFFGVYDGHGGHKVADYCRDRLHFALAEEIERIKDELCKRNTGEGRQVQWDKVFTSCFLTVDGEIEGKIGRAVVGSSDKVLEAVASETVGSTAVVALVCSSHIVVSNCGDSRAVLFRGKEAMPLSVDHKPDREDEYARIENAGGKVSQWQGARVFGVLAMSRSIGDRYLKPYVIPEPEVTFMPRSREDECLILASDGLWDVMNNQEVCEIARRRILMWHKKNGAPPLAERGKGIDPACQAAADYLSMLALQKGSKDNISIIVIDLKAQRKFKTRT |  | x
